{"source": "paper PMC10198859", "target": "murine TLR2/TLR6 (mouse (endogenous in RAW 264.7 and P388.D1)) (UniProt Q9QUN7)", "sequence (Q9QUN7 25-784, chain 1 of 2)": "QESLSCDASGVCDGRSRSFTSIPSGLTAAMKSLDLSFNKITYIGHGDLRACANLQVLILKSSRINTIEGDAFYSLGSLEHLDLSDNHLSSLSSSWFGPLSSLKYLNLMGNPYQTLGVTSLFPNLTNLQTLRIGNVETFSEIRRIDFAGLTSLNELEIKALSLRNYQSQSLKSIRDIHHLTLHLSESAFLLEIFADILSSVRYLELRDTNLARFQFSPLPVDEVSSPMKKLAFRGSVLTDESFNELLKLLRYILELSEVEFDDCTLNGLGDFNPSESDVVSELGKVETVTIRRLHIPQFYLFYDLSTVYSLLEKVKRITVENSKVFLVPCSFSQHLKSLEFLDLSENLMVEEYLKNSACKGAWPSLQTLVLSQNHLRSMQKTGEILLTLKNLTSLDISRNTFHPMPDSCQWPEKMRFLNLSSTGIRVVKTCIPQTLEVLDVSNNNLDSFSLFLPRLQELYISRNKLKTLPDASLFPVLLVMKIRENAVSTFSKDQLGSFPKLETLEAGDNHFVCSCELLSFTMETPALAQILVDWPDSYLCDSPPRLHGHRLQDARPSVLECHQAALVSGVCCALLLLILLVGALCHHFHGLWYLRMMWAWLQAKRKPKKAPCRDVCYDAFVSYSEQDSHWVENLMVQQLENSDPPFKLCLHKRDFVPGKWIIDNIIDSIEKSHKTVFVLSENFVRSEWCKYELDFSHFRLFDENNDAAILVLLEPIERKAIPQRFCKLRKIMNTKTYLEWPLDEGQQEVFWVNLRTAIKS", "sequence (Q9EPW9 28-795, chain 2 of 2, further chain)": "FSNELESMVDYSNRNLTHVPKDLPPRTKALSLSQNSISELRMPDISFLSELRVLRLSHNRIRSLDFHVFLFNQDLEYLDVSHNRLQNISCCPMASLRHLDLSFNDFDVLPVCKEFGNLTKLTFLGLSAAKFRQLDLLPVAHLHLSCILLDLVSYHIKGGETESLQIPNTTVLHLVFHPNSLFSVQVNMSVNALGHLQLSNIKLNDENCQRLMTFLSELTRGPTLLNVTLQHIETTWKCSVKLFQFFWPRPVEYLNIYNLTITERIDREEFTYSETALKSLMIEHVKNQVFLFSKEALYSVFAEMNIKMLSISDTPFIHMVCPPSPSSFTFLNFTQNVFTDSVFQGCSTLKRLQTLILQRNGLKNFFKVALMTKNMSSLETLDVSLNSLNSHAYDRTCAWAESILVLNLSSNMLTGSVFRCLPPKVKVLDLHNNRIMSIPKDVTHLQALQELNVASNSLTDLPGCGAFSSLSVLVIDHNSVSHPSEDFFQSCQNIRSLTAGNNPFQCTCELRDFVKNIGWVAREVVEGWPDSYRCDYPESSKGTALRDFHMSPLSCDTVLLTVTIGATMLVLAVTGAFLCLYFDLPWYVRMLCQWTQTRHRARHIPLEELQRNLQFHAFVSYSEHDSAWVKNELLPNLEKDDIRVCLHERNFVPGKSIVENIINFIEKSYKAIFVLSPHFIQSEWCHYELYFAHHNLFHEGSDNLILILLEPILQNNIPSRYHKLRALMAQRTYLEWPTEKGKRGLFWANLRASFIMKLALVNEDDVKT", "note": "Starred links: 1 amine or outer side, 2 acyl side, 3 side chain; linkers in the order of their positions; H or OH if unused. No end group written: not given here. *: point of attachment. Suc = O=C(CCC(=O)[*:2])[*:1]; For = O=C*"}
{"molecule": "-fM-BacSp222 (from UniProt A0A0P0C3P7 2-50) (peptide)", "values": [{"measurement": "TNF in the medium (ELISA) of P388.D1 cells, 1 µM -fM-BacSp222, 6 h, without antagonist", "result": 257, "unit": "pg/mL"}]}
{"molecule": "For-MAGLLRFLLSKGRALYNWAK(Suc)SHVGKVWEWLKSGATYEQIKEWIENALGWR", "note": "[suc-K20-BacSp222]", "values": [{"measurement": "TNF in the medium (ELISA) of P388.D1 cells, 1 µM suc-K20-BacSp222, 6 h, without antagonist", "result": 213, "unit": "pg/mL"}, {"measurement": "TNF in the medium (ELISA) of RAW 264.7 cells, 1 µM suc-K20-BacSp222, 6 h, without antagonist", "result": 1280, "unit": "pg/mL"}]}
{"molecule": "For-MAGLLRFLLSKGRALYNWAKSHVGKVWEWLKSGATYEQIKEWIENALGWR", "note": "[BacSp222 bacteriocin]", "values": [{"measurement": "TNF in the medium (ELISA) of P388.D1 cells, 1 µM BacSp222, 6 h, without antagonist", "result": 252, "unit": "pg/mL"}, {"measurement": "TNF in the medium (ELISA) of RAW 264.7 cells, 1 µM BacSp222, 6 h, without antagonist", "result": 976, "unit": "pg/mL"}]}
